Among the data in PMC4357730 are binding signal values, retold here.

One series relates to hTDG-N140A (human). In words: AFM. The following applies: AFM: 25 mM HEPES pH 7.5, 25 mM Na acetate, 10 mM Mg acetate, RT, 2-AP hTDG: 20 mM HEPES pH 7.0, 0.2 mM EDTA, 2.5 mM MgCl2, 100 mM NaCl, 25 C, 2-AP hOGG1: 50 mM …, scale: specificity S.
The next series concerns the target hTDG-R275A R275A (human) (UniProt Q13569). Put plainly: AFM. The settings on record: dUF at insert position 9 opposite G (non-cleavable G:U analog); AFM: 25 mM HEPES pH 7.5, 25 mM Na acetate, 10 mM Mg acetate, RT; 2-AP hTDG: 20 mM HEPES pH 7.0, 0.2 mM EDTA, 2.5 mM MgCl2, 100 mM NaCl, 25 C; 2-AP hOGG1: 50 mM …; scale: specificity S.

hTDG-R275A R275A (human), sequence (Q13569 whole entry R275A): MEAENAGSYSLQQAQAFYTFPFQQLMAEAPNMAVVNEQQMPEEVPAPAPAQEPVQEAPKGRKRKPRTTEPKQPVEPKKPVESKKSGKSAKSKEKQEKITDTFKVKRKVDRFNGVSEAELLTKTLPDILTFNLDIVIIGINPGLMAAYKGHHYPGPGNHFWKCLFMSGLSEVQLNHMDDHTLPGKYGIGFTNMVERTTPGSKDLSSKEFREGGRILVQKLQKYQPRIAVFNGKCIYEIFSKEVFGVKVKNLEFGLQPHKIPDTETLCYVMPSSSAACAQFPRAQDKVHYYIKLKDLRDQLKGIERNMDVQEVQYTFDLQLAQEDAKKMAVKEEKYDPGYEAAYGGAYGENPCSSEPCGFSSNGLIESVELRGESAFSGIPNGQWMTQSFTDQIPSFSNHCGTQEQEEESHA

In turn, 549 bp G:T DNA yielded a binding signal in the series with hTDG-N140A (human) of 305. 549 bp G:U DNA: the binding signal in the series on hTDG-N140A (human) (dU at insert position 9 opposite G) turned out to be 163. 549 bp G:UF DNA returned a binding signal in the series with hTDG-R275A R275A (human) of 358.
